Here are results for one molecule from patent publication US20230287383A1, “PYRROLYSYL-tRNA SYNTHETASE VARIANTS AND USES THEREOF” (enGenes Biotech GmbH, priority 2020, published 2023).

Assay [1] has as its system eGFP Y40am. In words: eGFP Y40am amber suppression reporter: ncAA incorporation by o-pairs, fluorescence normalized to cell density. The class given is cell-based. On the procedure: The incorporation of BocK, AllocK and AzK by the MmPyIRS/MmtRNACUA^Pyl and MaPyIRS/MatRNACUA^Pyl o-pairs was compared. The ncAAs were supplemented in the medium at 5 mM. eGFP fluorescence (λex 488 nm; λem 508 nm) was assessed after 4 hours (white bars) and overnight (black bars) induction. Fluorescence units were correlated to cell density (F488;508/D600) and the average of eight technical replicates is shown; the error bars indicate the standard deviation.
The incorporation of AzK by the MmPyIRS/MmtRNACUA^Pyl and the MaPyIRS/MatRNACUA^Pyl wild type and mutant o-pairs was compared. The ncAA was supplemented in the medium at 5 mM. eGFP fluorescence (λex 485 nm; λem 530 nm) was assessed after overnight induction. eGFP wild type was expressed from the same plasmid carrying the MmOP. Fluorescence units were correlated to cell density (F485;530/D600) and the average of at least two technical replicates is shown; the error bars indicate the standard deviation.
FIG. 4: The MaPyIRS M129L V168C/MatRNACUA^Pyl mutant o-pair produces more target protein than MmOP with less or the same amount of AzK. MaOP LC, MaPyIRS M129L V168C/MatRNACUA^Pyl; MmOP, PyIRS and RNACUA^Pyl from M. mazel, both o-pairs were used in BL21(DE3) cells; UNINDUCED, eGFP Y40am expression was not induced; INDUCED, expression was induced with 1 mM IPTG. Different concentrations of AzK were provided in the medium either 2 hours before induction with IPTG, or in parallel with IPTG. eGFP fluorescence (λex 485 nm; λem 530 nm) was assessed after overnight induction and was normalized to cell density (D600). The average of at least 3 replicates is shown and the error bars indicate the standard deviation.
The MaPyIRS M129L+V168C mutant variant was generated, which contains the same amino acid residues in the amino acid binding pocket as the MmPyIRS. […] The efficiency of the incorporation of AzK into the reporter protein eGFP Y40am was assessed by recording the fluorescence intensity normalized to the corresponding cell density and was compared to the fluorescence of wild type eGFP expressed from the same plasmid.

In assay [2] the test system is eGFP Y40am. In words: SDS-PAGE analysis of eGFP Y40am expression in the presence of AzK. Particulars: overnight induction, compared to eGFP wild type band. The class given is cell-based. How it is done: FIG. 3: SDS-PAGE analysis of the expression of eGFP Y40am in the presence of AzK with the MaPyIRS M129L V168C/MatRNACUA^Pyl mutant o-pair in comparison to MmOP and MaOP corroborates the fluorescence analysis. eGFP expression was assessed after overnight induction, two expressions of eGFP Y40AzK with the mutant MaOP are shown. eGFP wild type was expressed from the same plasmid carrying the MmOP. Samples of corresponding cell density were analyzed. The calculated molecular weight of eGFP is 28 kDa. M, molecular weight marker.
To further validate the finding, the expression of the reporter protein eGFP by SDS-PAGE was analyzed (e.g., FIG. 3).

B1: MmPyIRS/MmtRNACUA^Pyl: wildtype Methanosarcina mazei pyrrolysyl-tRNA synthetase/tRNA o-pair, the benchmark (protein, UniProt Q8PWY1 1-454, looked up)
Pyrrolysine--tRNA ligase: MDKKPLNTLISATGLWMSRTGTIHKIKHHEVSRSKIYIEMACGDHLVVNNSRSSRTARALRHHKYRKTCKRCRVSDEDLNKFLTKANEDQTSVKVKVVSAPTRTKKAMPKSVARAPKPLENTEAAQAQPSGSKFSPAIPVSTQESVSVPASVSTSISSISTGATASALVKGNTNPITSMSAPVQASAPALTKSQTDRLEVLLNPKDEISLNSGKPFRELESELLSRRKKDLQQIYAEERENYLGKLEREITRFFVDRGFLEIKSPILIPLEYIERMGIDNDTELSKQIFRVDKNFCLRPMLAPNLYNYLRKLDRALPDPIKIFEIGPCYRKESDGKEHLEEFTMLNFCQMGSGCTRENLESIITDFLNHLGIDFKIVGDSCMVYGDTLDVMHGDLELSSAVVGPIPLDREWGIDKPWIGAGFGLERLLKVKHDFKNIKRAARSESYYNGISTNL
modifications: with cognate tRNA Pyl
notes: wildtype Methanosarcina mazei pyrrolysyl-tRNA synthetase/tRNA o-pair, the benchmark
For B1, the AllocK incorporation result in the assay on eGFP Y40am [1] (AllocK 5 mM in medium, eGFP fluorescence correlated to cell density) is on record as “efficient incorporation”. Moreover, in the assay on eGFP Y40am [1] (AzK 5 mM in medium, eGFP fluorescence correlated to cell density (D600)), the AzK incorporation efficiency result is “very well incorporated”. In the assay on eGFP Y40am [1] (BocK 5 mM in medium, eGFP fluorescence correlated to cell density), the BocK incorporation result is reported as “efficient incorporation”. In addition, in the assay on eGFP Y40am [2], the “eGFP expression band intensity in the presence of AzK” value is reported as “markedly less intense”.
